How the values were obtained:
[1] = test system: substrate pentapeptide ER↓VSP
[2] = test system: substrate pentapeptide KLR↓TT
[3] = test system: substrate pentapeptide LR↓SRA
[4] = test system: substrate pentapeptide MTR↓SN
[5] = test system: substrate pentapeptide RGR↓SE
[6] = test system: substrate pentapeptide RR↓SID

human glandular kallikrein hK2
substrate phage display: peptide selected as cleaved by hK2 (scissile bond ↓) [1]: ER↓VSP | substrate phage display: peptide selected as cleaved by hK2 (scissile bond ↓) [2]: KLR↓TT | substrate phage display: peptide selected as cleaved by hK2 (scissile bond ↓) [3]: LR↓SRA | substrate phage display: peptide selected as cleaved by hK2 (scissile bond ↓) [4]: MTR↓SN | substrate phage display: peptide selected as cleaved by hK2 (scissile bond ↓) [5]: RGR↓SE | substrate phage display: peptide selected as cleaved by hK2 (scissile bond ↓) [6]: RR↓SID

Source: US20060269536
